Among the targets are HLA-B*07:02; HLA-A*11:01; HLA-A*01:01; HLA-A*24:02; HLA-A*03:01; HLA-B*44:02; HLA-A*02:01; HLA-B*40:01; HLA-A*69:01; HLA-B*15:09; HLA-A*31:01; HLA-B*27:05; HLA-B*15:01; HLA-B*58:01; HLA-A*02:11; HLA-B*18:01; HLA-B*46:01; HLA-A*02:16; HLA-B*51:01; HLA-A*02:19; HLA-A*02:12; HLA-A*26:01; HLA-B*57:01; HLA-B*27:03; HLA-A*02:03; HLA-A*24:03; HLA-B*08:01; HLA-B*73:01.
Common to all, as to assay: IEDB peptide-MHC binding, purified MHC/direct/fluorescence; filed as Kd, often an IC50 or EC50 that approximates it; ≥ and ≤ were set here for values at or beyond the usual limits of such assays
The target of another assay is HLA-B*08:02. As to conditions: source organism: Giardia lamblia ATCC 50803.
A further assay deals with HLA-B*39:01. As to conditions: source organism: Vibrio parahaemolyticus AQ3810.
The target of another assay is HLA-A*30:01. To be noted: source organism: Vibrio parahaemolyticus.
A further assay addresses HLA-A*68:02. To be noted: source organism: Salmonella enterica subsp. enterica serovar Berta.
For a further assay, the target named is HLA-A*29:02. To be noted: source organism: Salmonella enterica subsp. enterica serovar Berta.
Another assay concerns the target HLA-A*23:01. To be noted: source organism: Salmonella enterica subsp. enterica serovar Berta.
For a further assay, the target named is HLA-B*15:17. As to conditions: source organism: Salmonella enterica subsp. enterica serovar Berta.
A further assay deals with HLA-B*48:01. To be noted: source organism: Brucella suis.
Where [1] appears, read: source organism: Giardia lamblia ATCC 50803.
The mark [2] stands for this setting: source organism: Vibrio parahaemolyticus AQ3810.
Where [3] appears, read: source organism: Vibrio parahaemolyticus.
Where [4] appears, read: source organism: Salmonella enterica subsp. enterica serovar Berta.
The mark [5] stands for this setting: source organism: Influenza A virus (A/duck/Mongolia/47/2001(H7N1)).
[6] abbreviates: source organism: Influenza A virus(A/swine/Henan/3/2004(H9N2)).

With DEKPKVMEG, the Kd with HLA-B*07:02 (setting [1]), with HLA-A*11:01 (setting [1]), with HLA-A*01:01 (setting [1]), with HLA-A*24:02 (setting [1]), with HLA-A*03:01 (setting [1]) and with HLA-B*44:02 (setting [1]) was no less than 20 µM in each case. In addition, the Kd with HLA-A*02:01 (setting [1]), with HLA-B*40:01 (setting [1]), with HLA-A*69:01 (setting [1]), with HLA-B*15:09 (setting [1]), in the assay with HLA-A*31:01 (setting [1]) and with HLA-B*27:05 (setting [1]) was no less than 20 µM throughout. The Kd in the assay with HLA-B*15:01 (setting [1]), in the assay with HLA-B*58:01 (setting [1]) and with HLA-B*08:02 was no less than 20 µM in each case.

Consider EPFLVQFWI, for which the Kd in the assay with HLA-A*02:11 (setting [2]), with HLA-B*18:01 (setting [2]), in the assay with HLA-B*46:01 (setting [2]), with HLA-A*03:01 (setting [2]), with HLA-A*02:16 (setting [2]) and with HLA-A*02:01 (setting [2]) was no less than 20 µM each time. Moreover, the Kd (as a rule, the free concentration of one partner at which half of the binding sites on the other are occupied at equilibrium, for simple one-to-one binding) in the assay with HLA-B*39:01 is no less than 20 µM; in the assay with HLA-B*51:01 (setting [2]) it was 0.193 µM; with HLA-A*02:19 (setting [2]), no less than 20 µM; with HLA-A*02:12 (setting [2]), no less than 20 µM; with HLA-B*15:01 (setting [2]) it was no less than 20 µM; with HLA-A*26:01 (setting [2]), no less than 20 µM. The Kd with HLA-B*57:01 (setting [2]), in the assay with HLA-B*27:03 (setting [2]), with HLA-A*02:03 (setting [2]) and with HLA-A*24:03 (setting [2]) was no less than 20 µM each time.

With GRNSRFPDK, the Kd in the assay with HLA-B*07:02 (setting [3]), with HLA-A*01:01 (setting [3]), with HLA-A*03:01 (setting [3]), with HLA-B*44:02 (setting [3]), in the assay with HLA-A*02:01 (setting [3]) and in the assay with HLA-B*40:01 (setting [3]) was no less than 20 µM throughout. In addition, the Kd in the assay with HLA-A*69:01 (setting [3]) is no less than 20 µM; in the assay with HLA-B*08:01 (setting [3]), no less than 20 µM; in the assay with HLA-A*30:01, no less than 5 µM; with HLA-A*31:01 (setting [3]), no less than 20 µM; in the assay with HLA-B*27:05 (setting [3]) it was 1.04 µM; in the assay with HLA-B*15:01 (setting [3]), no less than 20 µM. For the same sequence, the equilibrium dissociation constant (Kd) in the assay with HLA-B*58:01 (setting [3]), in the assay with HLA-B*73:01 (setting [2]) and with HLA-A*26:01 (setting [3]) was no less than 20 µM in each case.

Take HQDDGQPRL: the Kd with HLA-A*68:02, with HLA-A*02:11 (setting [4]), with HLA-B*18:01 (setting [4]), with HLA-A*29:02, in the assay with HLA-B*46:01 (setting [4]) and with HLA-A*23:01 was no less than 20 µM throughout. The Kd with HLA-A*03:01 (setting [4]), in the assay with HLA-A*02:16 (setting [4]), with HLA-A*02:01 (setting [4]), with HLA-A*69:01 (setting [4]), with HLA-B*15:17 and with HLA-B*51:01 (setting [4]) was no less than 20 µM each time. Further, the equilibrium dissociation constant (Kd) with HLA-A*02:19 (setting [4]), with HLA-A*02:12 (setting [4]), in the assay with HLA-B*15:01 (setting [4]), with HLA-A*26:01 (setting [4]), with HLA-B*57:01 (setting [4]) and in the assay with HLA-B*27:03 (setting [4]) was no less than 20 µM in each case. The dissociation constant Kd with HLA-A*02:03 (setting [4]) and in the assay with HLA-A*24:03 (setting [4]) was no less than 20 µM each time.

On to NESGRLIDF, for which the Kd in the assay with HLA-B*07:02 (setting [5]), in the assay with HLA-B*46:01 (setting [5]), in the assay with HLA-A*11:01 (setting [5]), in the assay with HLA-A*01:01 (setting [5]), with HLA-A*24:02 (setting [5]) and with HLA-A*03:01 (setting [5]) was no less than 20 µM throughout. The dissociation constant (Kd) with HLA-A*02:01 (setting [5]) is no less than 20 µM; with HLA-B*40:01 (source organism: Influenza A virus (A/Puerto Rico/8/34/Mount Sinai(H1N1))) it was no less than 5 µM; with HLA-A*69:01 (setting [5]), no less than 20 µM; with HLA-B*08:01 (setting [5]), no less than 20 µM; with HLA-B*15:09 (setting [6]) it was no less than 20 µM; with HLA-A*31:01 (setting [5]) it was no less than 20 µM. The dissociation constant Kd with HLA-B*27:05 (setting [5]), with HLA-B*15:01 (setting [5]), with HLA-B*58:01 (setting [5]) and with HLA-A*26:01 (setting [6]) was no less than 20 µM each time.

With RRTKLPLTK, the results for the Kd with HLA-B*48:01, in the assay with HLA-B*27:05 (source organism: Brucella suis) and in the assay with HLA-B*73:01 (source organism: Brucella suis 1330) were no less than 20 µM, 0.0792 µM and no less than 20 µM, respectively.

The values above are taken from the Immune Epitope Database (IEDB).
